One molecule from patent US20250135022A1, “METHODS FOR THE USE OF A B7-H3 ANTIBODY-DRUG CONJUGATE IN COMBINATION WITH A PD-1 X CTLA-4 BISPECIFIC MOLECULE” (MACROGENICS, INC., priority 2022, published 2025) can be followed below.

In the assay the target is T1, B7-H3 of cynomolgus monkeys (Macaca fascicularis, UniProt A0A7N9CYV2).
T1 sequence (A0A7N9CYV2 29-534): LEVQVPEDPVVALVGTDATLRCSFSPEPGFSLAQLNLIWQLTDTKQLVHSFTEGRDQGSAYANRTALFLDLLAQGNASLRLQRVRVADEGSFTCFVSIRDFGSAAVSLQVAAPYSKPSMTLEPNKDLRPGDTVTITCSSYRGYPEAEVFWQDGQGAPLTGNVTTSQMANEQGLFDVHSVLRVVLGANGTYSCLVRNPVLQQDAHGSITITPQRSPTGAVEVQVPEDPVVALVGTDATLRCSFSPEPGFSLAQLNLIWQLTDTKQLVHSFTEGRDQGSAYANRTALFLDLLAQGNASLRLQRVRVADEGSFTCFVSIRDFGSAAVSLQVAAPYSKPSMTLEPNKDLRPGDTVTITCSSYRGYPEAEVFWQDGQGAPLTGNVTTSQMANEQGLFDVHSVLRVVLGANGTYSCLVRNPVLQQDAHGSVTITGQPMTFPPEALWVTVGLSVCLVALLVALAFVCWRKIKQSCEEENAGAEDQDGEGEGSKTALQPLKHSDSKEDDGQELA
Description: Cross-reactivity of anti-B7-H3 antibody. The assay is classed as binding.

B1: mAb-A: anti-B7-H3 antibody isolated from hybridoma cells; murine VL SEQ ID NO:15, VH SEQ ID NO:16 (antibody, V domains shown)
VH: EVQQVESGGDLVKPGGSLKLSCAASGFTFSSYGMSWVRQTPDKRLEWVATINSGGSNTYYPDSLKGRFTISRDNAKNTLYLQMRSLKSEDTAMYYCARHDGGAMDYWGQGTSVTVSS
VL: DIQMTQSPASLSVSVGETVTITCRASESIYSYLAWYQQKQGKSPQLLVYNTKTLPEGVPSRFSGSGSGTQFSLKINSLQPEDFGRYYCQHHYGTPPWTFGGGTNLEIK
modifications: Synthetic: amino acid sequence of the VH Domain of anti-B7-H3 mAb-A; Synthetic: amino acid sequence of the VL Domain of the murine anti-B7-H3 antibody mAb-A
Turning to B1, the “cross-reactivity with B7-H3 of cynomolgus monkeys” value is given as “cross-reactive”.
